Measured values: patent publication US20200385482A1

Legend:
[1] = target: human C-type lectin domain family 2 member (hCLEC2D) expressed on transfected 300.19 cells (human) (UniProt Q9UHP7); assay: FACS, hCLEC2D 300.19 cells, assay 1, Ab 0.1 ug/ml
[2] = target: human C-type lectin domain family 2 member (hCLEC2D) expressed on transfected 300.19 cells (human) (UniProt Q9UHP7); assay: FACS, hCLEC2D 300.19 cells, assay 1, Ab 1 ug/ml
[3] = target: human C-type lectin domain family 2 member (hCLEC2D) expressed on transfected 300.19 cells (human) (UniProt Q9UHP7); assay: FACS, hCLEC2D 300.19 cells, assay 1, Ab approx 10 ug/ml
[4] = target: human C-type lectin domain family 2 member (hCLEC2D) expressed on transfected 300.19 cells (human) (UniProt Q9UHP7); assay: FACS, hCLEC2D 300.19 cells, assay 2, Ab 0.1 ug/ml
[5] = target: human C-type lectin domain family 2 member (hCLEC2D) expressed on transfected 300.19 cells (human) (UniProt Q9UHP7); assay: FACS, hCLEC2D 300.19 cells, assay 2, Ab approx 10 ug/ml
[6] = target: human C-type lectin domain family 2 member (hCLEC2D) expressed on transfected 300.19 cells (human) (UniProt Q9UHP7); assay: FACS, hCLEC2D 300.19 cells, assay 2, Ab 0.01 ug/ml
[7] = target: human C-type lectin domain family 2 member (hCLEC2D) expressed on transfected 300.19 cells (human) (UniProt Q9UHP7); assay: FACS, hCLEC2D 300.19 cells, assay 1, Ab 0.01 ug/ml
[8] = target: human C-type lectin domain family 2 member (hCLEC2D) expressed on transfected 300.19 cells (human) (UniProt Q9UHP7); assay: FACS, hCLEC2D 300.19 cells, assay 2, Ab 1 ug/ml

human C-type lectin domain family 2 member (hCLEC2D) expressed on transfected 300.19 cells (human), sequence (Q9UHP7 whole entry, the tested form may be a part): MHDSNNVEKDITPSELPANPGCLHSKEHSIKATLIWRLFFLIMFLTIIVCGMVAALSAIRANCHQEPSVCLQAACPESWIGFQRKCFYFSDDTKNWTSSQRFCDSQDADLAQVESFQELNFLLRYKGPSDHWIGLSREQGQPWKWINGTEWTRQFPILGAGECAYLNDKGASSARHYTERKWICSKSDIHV

Work on control hIgG (antibody) yielded a Cells PE-A Mean [1] of 175 MFI, a Cells PE-A Mean [2] of 351 MFI and a Cells PE-A Mean [3] of 1540 MFI. It also gave a Cells PE-A Mean [4] of 175 MFI, a Cells PE-A Mean [5] of 1540 MFI and a Cells PE-A Mean [6] of 146 MFI. The Cells PE-A Mean [7] was 146 MFI and the Cells PE-A Mean [8] was 351 MFI.
